Literature values, collected in US10906951B2, “Modified natural killer cells and natural killer cell lines having increased cytotoxicity” (ONK THERAPEUTICS LIMITED, priority 2015, dated 2021).

Biological target: DR4 (Homo sapiens, UniProt O00220)
Conditions: in words; known from WO 2009/066174, MacFarlane 2005; cited from earlier work

Row | Molecule | affinity for DR4
1 | N199R: TRAIL DR4 variant, WO 2009/066174 (protein, UniProt P50591 1-281, looked up, variant N199R) Tumor necrosis factor ligand …: MAMMEVQGGPSLGQTCVLIVIFTVLLQSLCVAVTYVYFTNELKQMQDKYSKSGIACFLKEDDSYWDPNDEESMNSPCWQVKWQLRQLVRKMILRTSEETISTVQEKQQNISPLVRERGPQRVAAHITGTRGRSNTLSSPNSKNEKALGRKINSWESSRSGHSFLSNLHLRNGELVIHEKGFYYIYSQTYFRFQEEIKERTKNDKQMVQYIYKYTSYPDPILLMKSARNSCWSKDAEYGLYSIYQGGIFELKENDRIFVSVTNEHLIDMDHEASFFGAFLVG | increased affinity for DR4
2 | N199R/K201H: TRAIL DR4 variant, WO 2009/066174 (protein, UniProt P50591 1-281, looked up, variant N199R K201H) Tumor necrosis factor ligand …: MAMMEVQGGPSLGQTCVLIVIFTVLLQSLCVAVTYVYFTNELKQMQDKYSKSGIACFLKEDDSYWDPNDEESMNSPCWQVKWQLRQLVRKMILRTSEETISTVQEKQQNISPLVRERGPQRVAAHITGTRGRSNTLSSPNSKNEKALGRKINSWESSRSGHSFLSNLHLRNGELVIHEKGFYYIYSQTYFRFQEEIKERTHNDKQMVQYIYKYTSYPDPILLMKSARNSCWSKDAEYGLYSIYQGGIFELKENDRIFVSVTNEHLIDMDHEASFFGAFLVG | increased affinity for DR4
3 | N199H/K201R: TRAIL DR4 variant, WO 2009/066174 (protein, UniProt P50591 1-281, looked up, variant N199H K201R) Tumor necrosis factor ligand …: MAMMEVQGGPSLGQTCVLIVIFTVLLQSLCVAVTYVYFTNELKQMQDKYSKSGIACFLKEDDSYWDPNDEESMNSPCWQVKWQLRQLVRKMILRTSEETISTVQEKQQNISPLVRERGPQRVAAHITGTRGRSNTLSSPNSKNEKALGRKINSWESSRSGHSFLSNLHLRNGELVIHEKGFYYIYSQTYFRFQEEIKEHTRNDKQMVQYIYKYTSYPDPILLMKSARNSCWSKDAEYGLYSIYQGGIFELKENDRIFVSVTNEHLIDMDHEASFFGAFLVG | increased affinity for DR4
4 | G131R/N199R/K201H: TRAIL DR4 variant, WO 2009/066174 (protein, UniProt P50591 1-281, looked up, variant G131R N199R K201H) Tumor necrosis factor ligand …: MAMMEVQGGPSLGQTCVLIVIFTVLLQSLCVAVTYVYFTNELKQMQDKYSKSGIACFLKEDDSYWDPNDEESMNSPCWQVKWQLRQLVRKMILRTSEETISTVQEKQQNISPLVRERGPQRVAAHITGTRRRSNTLSSPNSKNEKALGRKINSWESSRSGHSFLSNLHLRNGELVIHEKGFYYIYSQTYFRFQEEIKERTHNDKQMVQYIYKYTSYPDPILLMKSARNSCWSKDAEYGLYSIYQGGIFELKENDRIFVSVTNEHLIDMDHEASFFGAFLVG | increased affinity for DR4
5 | G131R/N199R/K201H/R149I/S159R/S215D: TRAIL DR4 variant, WO 2009/066174 (protein, UniProt P50591 1-281, looked up, variant G131R N199R K201H R149I S159R S215D) Tumor necrosis factor ligand …: MAMMEVQGGPSLGQTCVLIVIFTVLLQSLCVAVTYVYFTNELKQMQDKYSKSGIACFLKEDDSYWDPNDEESMNSPCWQVKWQLRQLVRKMILRTSEETISTVQEKQQNISPLVRERGPQRVAAHITGTRRRSNTLSSPNSKNEKALGIKINSWESSRRGHSFLSNLHLRNGELVIHEKGFYYIYSQTYFRFQEEIKERTHNDKQMVQYIYKYTDYPDPILLMKSARNSCWSKDAEYGLYSIYQGGIFELKENDRIFVSVTNEHLIDMDHEASFFGAFLVG | increased affinity for DR4
6 | G131R/R149I/S159R/S215D: 4C9, a DR4-specific TRAIL variant; DNA sequence SEQ ID NO: 14 (protein, listed as Homo sapiens) MAMMEVQGGPSLGQTCVLIVIFTVLLQSLCVAVTYVYFTNELKQMQDKYSKSGIACFLKEDDSYWDPNDEESMNSPCWQVKWQLRQLVRKMILRTSEETISTVQEKQQNISPLVRERGPQRVAAHITGTRRRSNTLSSPNSKNEKALGIKINSWESSRRGHSFLSNLHLRNGELVIHEKGFYYIYSQTYFRFQEEIKENTKNDKQMVQYIYKYTDYPDPILLMKSARNSCWSKDAEYGLYSIYQGGIFELKENDRIFVSVTNEHLIDMDHEASFFGAFLVG | increased affinity for DR4
7 | G131R/D218H: TRAIL DR4 variant, WO 2009/066174 (protein, UniProt P50591 1-281, looked up, variant G131R D218H) Tumor necrosis factor ligand …: MAMMEVQGGPSLGQTCVLIVIFTVLLQSLCVAVTYVYFTNELKQMQDKYSKSGIACFLKEDDSYWDPNDEESMNSPCWQVKWQLRQLVRKMILRTSEETISTVQEKQQNISPLVRERGPQRVAAHITGTRRRSNTLSSPNSKNEKALGRKINSWESSRSGHSFLSNLHLRNGELVIHEKGFYYIYSQTYFRFQEEIKENTKNDKQMVQYIYKYTSYPHPILLMKSARNSCWSKDAEYGLYSIYQGGIFELKENDRIFVSVTNEHLIDMDHEASFFGAFLVG | increased affinity for DR4
8 | K201R: TRAIL DR4 variant, WO 2009/066174 (protein, UniProt P50591 1-281, looked up, variant K201R) Tumor necrosis factor ligand …: MAMMEVQGGPSLGQTCVLIVIFTVLLQSLCVAVTYVYFTNELKQMQDKYSKSGIACFLKEDDSYWDPNDEESMNSPCWQVKWQLRQLVRKMILRTSEETISTVQEKQQNISPLVRERGPQRVAAHITGTRGRSNTLSSPNSKNEKALGRKINSWESSRSGHSFLSNLHLRNGELVIHEKGFYYIYSQTYFRFQEEIKENTRNDKQMVQYIYKYTSYPDPILLMKSARNSCWSKDAEYGLYSIYQGGIFELKENDRIFVSVTNEHLIDMDHEASFFGAFLVG | increased affinity for DR4
9 | K201H: TRAIL DR4 variant, WO 2009/066174 (protein, UniProt P50591 1-281, looked up, variant K201H) Tumor necrosis factor ligand …: MAMMEVQGGPSLGQTCVLIVIFTVLLQSLCVAVTYVYFTNELKQMQDKYSKSGIACFLKEDDSYWDPNDEESMNSPCWQVKWQLRQLVRKMILRTSEETISTVQEKQQNISPLVRERGPQRVAAHITGTRGRSNTLSSPNSKNEKALGRKINSWESSRSGHSFLSNLHLRNGELVIHEKGFYYIYSQTYFRFQEEIKENTHNDKQMVQYIYKYTSYPDPILLMKSARNSCWSKDAEYGLYSIYQGGIFELKENDRIFVSVTNEHLIDMDHEASFFGAFLVG | increased affinity for DR4
10 | K204E: TRAIL DR4 variant, WO 2009/066174 (protein, UniProt P50591 1-281, looked up, variant K204E) Tumor necrosis factor ligand …: MAMMEVQGGPSLGQTCVLIVIFTVLLQSLCVAVTYVYFTNELKQMQDKYSKSGIACFLKEDDSYWDPNDEESMNSPCWQVKWQLRQLVRKMILRTSEETISTVQEKQQNISPLVRERGPQRVAAHITGTRGRSNTLSSPNSKNEKALGRKINSWESSRSGHSFLSNLHLRNGELVIHEKGFYYIYSQTYFRFQEEIKENTKNDEQMVQYIYKYTSYPDPILLMKSARNSCWSKDAEYGLYSIYQGGIFELKENDRIFVSVTNEHLIDMDHEASFFGAFLVG | increased affinity for DR4
11 | G131R: TRAIL DR4 variant, WO 2009/066174 (protein, UniProt P50591 1-281, looked up, variant G131R) Tumor necrosis factor ligand …: MAMMEVQGGPSLGQTCVLIVIFTVLLQSLCVAVTYVYFTNELKQMQDKYSKSGIACFLKEDDSYWDPNDEESMNSPCWQVKWQLRQLVRKMILRTSEETISTVQEKQQNISPLVRERGPQRVAAHITGTRRRSNTLSSPNSKNEKALGRKINSWESSRSGHSFLSNLHLRNGELVIHEKGFYYIYSQTYFRFQEEIKENTKNDKQMVQYIYKYTSYPDPILLMKSARNSCWSKDAEYGLYSIYQGGIFELKENDRIFVSVTNEHLIDMDHEASFFGAFLVG | increased affinity for DR4
12 | K204D: TRAIL DR4 variant, WO 2009/066174 (protein, UniProt P50591 1-281, looked up, variant K204D) Tumor necrosis factor ligand …: MAMMEVQGGPSLGQTCVLIVIFTVLLQSLCVAVTYVYFTNELKQMQDKYSKSGIACFLKEDDSYWDPNDEESMNSPCWQVKWQLRQLVRKMILRTSEETISTVQEKQQNISPLVRERGPQRVAAHITGTRGRSNTLSSPNSKNEKALGRKINSWESSRSGHSFLSNLHLRNGELVIHEKGFYYIYSQTYFRFQEEIKENTKNDDQMVQYIYKYTSYPDPILLMKSARNSCWSKDAEYGLYSIYQGGIFELKENDRIFVSVTNEHLIDMDHEASFFGAFLVG | increased affinity for DR4
13 | K204L: TRAIL DR4 variant, WO 2009/066174 (protein, UniProt P50591 1-281, looked up, variant K204L) Tumor necrosis factor ligand …: MAMMEVQGGPSLGQTCVLIVIFTVLLQSLCVAVTYVYFTNELKQMQDKYSKSGIACFLKEDDSYWDPNDEESMNSPCWQVKWQLRQLVRKMILRTSEETISTVQEKQQNISPLVRERGPQRVAAHITGTRGRSNTLSSPNSKNEKALGRKINSWESSRSGHSFLSNLHLRNGELVIHEKGFYYIYSQTYFRFQEEIKENTKNDLQMVQYIYKYTSYPDPILLMKSARNSCWSKDAEYGLYSIYQGGIFELKENDRIFVSVTNEHLIDMDHEASFFGAFLVG | increased affinity for DR4
14 | K204Y: TRAIL DR4 variant, WO 2009/066174 (protein, UniProt P50591 1-281, looked up, variant K204Y) Tumor necrosis factor ligand …: MAMMEVQGGPSLGQTCVLIVIFTVLLQSLCVAVTYVYFTNELKQMQDKYSKSGIACFLKEDDSYWDPNDEESMNSPCWQVKWQLRQLVRKMILRTSEETISTVQEKQQNISPLVRERGPQRVAAHITGTRGRSNTLSSPNSKNEKALGRKINSWESSRSGHSFLSNLHLRNGELVIHEKGFYYIYSQTYFRFQEEIKENTKNDYQMVQYIYKYTSYPDPILLMKSARNSCWSKDAEYGLYSIYQGGIFELKENDRIFVSVTNEHLIDMDHEASFFGAFLVG | increased affinity for DR4
15 | K212R: TRAIL DR4 variant, WO 2009/066174 (protein, UniProt P50591 1-281, looked up, variant K212R) Tumor necrosis factor ligand …: MAMMEVQGGPSLGQTCVLIVIFTVLLQSLCVAVTYVYFTNELKQMQDKYSKSGIACFLKEDDSYWDPNDEESMNSPCWQVKWQLRQLVRKMILRTSEETISTVQEKQQNISPLVRERGPQRVAAHITGTRGRSNTLSSPNSKNEKALGRKINSWESSRSGHSFLSNLHLRNGELVIHEKGFYYIYSQTYFRFQEEIKENTKNDKQMVQYIYRYTSYPDPILLMKSARNSCWSKDAEYGLYSIYQGGIFELKENDRIFVSVTNEHLIDMDHEASFFGAFLVG | increased affinity for DR4
16 | S215E: TRAIL DR4 variant, WO 2009/066174 (protein, UniProt P50591 1-281, looked up, variant S215E) Tumor necrosis factor ligand …: MAMMEVQGGPSLGQTCVLIVIFTVLLQSLCVAVTYVYFTNELKQMQDKYSKSGIACFLKEDDSYWDPNDEESMNSPCWQVKWQLRQLVRKMILRTSEETISTVQEKQQNISPLVRERGPQRVAAHITGTRGRSNTLSSPNSKNEKALGRKINSWESSRSGHSFLSNLHLRNGELVIHEKGFYYIYSQTYFRFQEEIKENTKNDKQMVQYIYKYTEYPDPILLMKSARNSCWSKDAEYGLYSIYQGGIFELKENDRIFVSVTNEHLIDMDHEASFFGAFLVG | increased affinity for DR4
